Two molecules from US20210130491A1 (ONCOTAG DIAGNOSTICS, published 2021) can be followed below.

The target in test [1] is T1, MRS fragment 7 (660~860 aa) (human, UniProt P56192 660-860).
T1 construct: not shown: Myc linked to the N-terminus
T1 sequence: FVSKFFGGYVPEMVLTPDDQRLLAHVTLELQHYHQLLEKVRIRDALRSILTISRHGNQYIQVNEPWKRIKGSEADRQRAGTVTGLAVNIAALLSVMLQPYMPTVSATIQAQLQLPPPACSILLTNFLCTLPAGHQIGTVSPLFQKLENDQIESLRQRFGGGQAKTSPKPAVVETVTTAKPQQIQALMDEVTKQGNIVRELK
The experiment in a line: western blot of lysate of transfected H460 cells. The protocol: Then, 2 μg of the cloned vector DNA were transfected into H460 cells using Turbofect (Thermo) according to the manufacturer's instructions. After 24 hours, cells were harvested and subjected to western blot. 1E8 antibody and 8A12 antibody were diluted 1:5000 (0.2 μg/mL) as the primary antibody.
Then, western blot was performed in the same manner as described above.
For orientation: In western blotting, separated proteins are transferred to a membrane and probed.

Test [2] concerns the target T2, co-purified MRS-AIMP3 protein (human, UniProt P56192 1-900; O43324 1-174, limits assumed).
T2 construct: MRS and AIMP3 co-expressed in E. coli BL21DE3 and co-purified
T2 sequence 1: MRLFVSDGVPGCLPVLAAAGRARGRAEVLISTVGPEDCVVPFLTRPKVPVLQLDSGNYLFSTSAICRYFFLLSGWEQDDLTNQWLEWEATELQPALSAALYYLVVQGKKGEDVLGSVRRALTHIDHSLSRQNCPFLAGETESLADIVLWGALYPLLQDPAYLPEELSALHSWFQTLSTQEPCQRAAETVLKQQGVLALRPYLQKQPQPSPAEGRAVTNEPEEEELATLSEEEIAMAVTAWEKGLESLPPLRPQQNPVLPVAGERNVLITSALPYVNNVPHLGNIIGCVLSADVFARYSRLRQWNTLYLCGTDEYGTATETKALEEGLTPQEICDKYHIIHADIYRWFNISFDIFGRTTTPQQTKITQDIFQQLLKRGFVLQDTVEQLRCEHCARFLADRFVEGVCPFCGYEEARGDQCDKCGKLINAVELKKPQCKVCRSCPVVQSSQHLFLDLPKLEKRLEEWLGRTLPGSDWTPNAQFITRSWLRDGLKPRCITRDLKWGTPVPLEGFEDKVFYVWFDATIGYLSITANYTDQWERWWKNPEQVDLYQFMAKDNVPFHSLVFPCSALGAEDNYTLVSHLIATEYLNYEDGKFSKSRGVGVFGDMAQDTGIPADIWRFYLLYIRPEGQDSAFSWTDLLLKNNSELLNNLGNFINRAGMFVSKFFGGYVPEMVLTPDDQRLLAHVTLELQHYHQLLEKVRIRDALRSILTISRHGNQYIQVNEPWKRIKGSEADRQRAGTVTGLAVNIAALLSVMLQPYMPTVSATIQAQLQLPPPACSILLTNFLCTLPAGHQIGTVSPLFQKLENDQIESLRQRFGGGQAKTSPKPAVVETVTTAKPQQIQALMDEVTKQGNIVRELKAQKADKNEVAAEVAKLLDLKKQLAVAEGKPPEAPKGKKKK
T2 sequence 2: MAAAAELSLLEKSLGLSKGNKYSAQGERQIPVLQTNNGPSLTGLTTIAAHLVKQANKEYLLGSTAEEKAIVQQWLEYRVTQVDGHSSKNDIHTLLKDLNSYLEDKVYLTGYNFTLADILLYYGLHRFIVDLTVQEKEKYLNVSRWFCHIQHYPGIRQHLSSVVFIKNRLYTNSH
The experiment in a line: SPR, CM5 chip coated with MRS+AIMP3, antibody flowed at 0.20 to 200 nM. The protocol:
(§1) Surface plasmon resonance (SPR) experiments were carried out using 1E8 and 8A12 antibodies and MRS+AIMP3 protein obtained in Example 1.
(§2) CM5 chips were coated with MRS+AIMP3 or AIMP3 proteins and 1E8 or 8A12 antibodies were flowed at various concentrations to measure the degree of binding reaction with the proteins. Samples or buffers were injected for 8 minutes at a flow rate of 30 μl/min and washed for 20 minutes.

The target in test [3] is T2, co-purified MRS-AIMP3 protein. The test can be described thus: SPR, MRS+AIMP3 on CM5 chip, antibody flowed; 1E8 antibody; MRS+AIMP3 on the chip. On the procedure:
as §1, §2

For test [4] the target is unchanged. The test can be described thus: SPR, CM5 chip coated with MRS+AIMP3, antibody flowed at 0.39 to 200 nM. On the procedure:
as §1, §2
On the technique in general: In SPR one partner is held on a chip, and binding of the other changes the refractive index at the surface.

The target is the same in test [5]. The test can be described thus: SPR, MRS+AIMP3 on CM5 chip, antibody flowed; 8A12 antibody; MRS+AIMP3 on the chip. The protocol:
as §1, §2

B1: 1E8 antibody (1E8 IgG) (antibody, V domains shown)
VH: DVKLQESGPGLVNPSQSLSLTCTVTGYSITSDYAWNWIRQFPGNKLEWMGYISYSGRTSYKSSLKSRISITRDTSKNQFFLELNSVTTEDTATYYCARDYGNFVGYFDVWGAGTTVTVSS
VL: DIVMTQSPSSLAVSVGEKVTMSCKSSQSLLYSSNQKNYLAWYQQKPGQSPKLLIYWASTRESGVPDRFTGSGSGTEFTLTISSVKAEDLAVYYCQQYYSYPTFGGGTKLEIKA
notes: Mouse monoclonal from hybridoma clone 1E8; also called IE8; anti-MRS antibody (1E8)
As for B1, the binding result in test [1] is given as “no binding (tested: 1:5000 (0.2 ug/mL))”. In test [2], the koff (as a rule, a measure of how fast the partners let go of each other) was found to be 0.000526 s⁻¹ and the kon (in general, a measure of how fast the partners come together) was determined as 97100 M⁻¹ s⁻¹. Binding in test [3] was characterised by a dissociation constant (Kd) of 5.42 nM.

B2: 8A12 antibody (8A12 IgG) (antibody, V domains shown)
VH: DVKLQESGPGLVKPSQSLSLTCTVTGYSITSEYAWTWIRQFPGNKLEWMGYINYNGNTNLNPSLKSRISIIRDTSKNQFFLQLNSVTTEDTATYYCARSLWPRGWFAYWGQGTLVTVSA
VL: DIQMTQSPSSMYASLGERVTITCKASQDINSYLSWFQQKPGKSPKTLMYRANRLVDGVPSRFSGSGSGQDYSLTISSLEYEDMGIYYCLQYDEFPRTFGGGTKLEIKA
notes: Mouse monoclonal from hybridoma clone 8A12; also called 8Al2; anti-MRS antibody (8A12)
With B2, in test [4], the koff came out at 0.000213 s⁻¹ and the kon turned out to be 137000 M⁻¹ s⁻¹. In test [1], the binding result is “no binding (tested: 1:5000 (0.2 ug/mL))”. Moreover, binding in test [5] was characterised by a dissociation constant (Kd) of 1.56 nM.
